Data set [1] concerns the target T1, human dimethylglycine dehydrogenase (hDMGDH) (Homo sapiens, UniProt Q9UI17).
T1 construct: gene DMGDH; covalent FAD at His91
T1 sequence (Q9UI17 29-866): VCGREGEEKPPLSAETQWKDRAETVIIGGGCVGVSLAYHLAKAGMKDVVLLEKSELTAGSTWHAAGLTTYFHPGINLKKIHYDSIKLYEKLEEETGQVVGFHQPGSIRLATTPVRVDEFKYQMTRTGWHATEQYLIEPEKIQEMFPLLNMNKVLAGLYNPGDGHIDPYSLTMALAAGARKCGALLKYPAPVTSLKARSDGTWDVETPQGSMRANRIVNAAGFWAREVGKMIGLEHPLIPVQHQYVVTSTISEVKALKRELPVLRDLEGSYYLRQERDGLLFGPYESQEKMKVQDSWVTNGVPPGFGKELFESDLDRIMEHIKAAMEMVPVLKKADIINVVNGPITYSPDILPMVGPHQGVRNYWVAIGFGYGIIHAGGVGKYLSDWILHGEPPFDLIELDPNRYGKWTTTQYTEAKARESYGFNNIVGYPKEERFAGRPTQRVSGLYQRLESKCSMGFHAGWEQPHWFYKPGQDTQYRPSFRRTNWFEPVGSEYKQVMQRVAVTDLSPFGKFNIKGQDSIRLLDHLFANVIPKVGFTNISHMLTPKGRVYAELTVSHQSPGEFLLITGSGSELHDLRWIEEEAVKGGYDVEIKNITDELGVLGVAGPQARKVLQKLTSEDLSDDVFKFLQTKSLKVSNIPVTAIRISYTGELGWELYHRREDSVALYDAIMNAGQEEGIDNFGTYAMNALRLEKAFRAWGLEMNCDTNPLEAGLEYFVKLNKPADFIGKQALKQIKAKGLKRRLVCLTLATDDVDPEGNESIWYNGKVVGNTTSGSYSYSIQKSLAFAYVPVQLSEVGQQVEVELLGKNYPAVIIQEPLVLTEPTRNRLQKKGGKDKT
The experiment in a line: ferrocenium activity assay against THF concentration. Conditions: 1 mM DMG, 0.2 mM ferrocene, 0-75 μM THF, 50 mM HEPES/NaOH, 150 mM NaCl, 0.1 mM EDTA, pH 7.8, 25 °C; physiological methyl acceptor. In kind it is biochemical.

For data set [2], the target named is T1, human dimethylglycine dehydrogenase (hDMGDH). The experiment in a line: stopped flow, FAD reduction at […] nm, hyperbolic fit of kobs. It counts as biochemical. Conditions: anaerobic, 50 mM HEPES/NaOH, 150 mM NaCl, pH 7.8, 25 °C; pre-steady-state; read-out: K D,DMG.
Data set [3] shares this target. Kind of data set: X-ray crystal structure, […] Å. In kind it is binding. Conditions: covalent; 8alpha-methyl group linked to N3 of His91.
Substrate in data set [4]: CN(C)CC(=O)O
The experiment in a line: purified protein. In kind it is biochemical, Homo sapiens. Conditions: 0.2 mM ferrocenium hexafluorophosphate as electron acceptor, 50 mM HEPES/NaOH, 150 mM NaCl, 0.1 mM EDTA, pH 7.8, 25 °C.

Where [5] appears, read: natural disease variant, partly apoprotein.

This is an account of results in PMC5082570, “Structure and biochemical properties of recombinant human dimethylglycine dehydrogenase and comparison to the disease‐related H109R variant” (The Febs Journal, 2016).

Changes are numbered by the printed parent chain. Numbers in names are those of the source.

For `Nc1nc2c(c(=O)[nH]1)N[C@@H](CNc1ccc(C(=O)N[C@@H](CCC(=O)O)C(=O)O)cc1)CN2` [THF, tetrahydrofolate], the activity result in data set [1] is listed as “the activity of WT decreases as a function of the THF concentration”.

Regarding `CN(C)CC(=O)O` [DMG, dimethylglycine], the Kd in data set [2] came to 4.9 ± 0.3 mM.

Regarding `Cc1cc2nc3c(=O)[nH]c(=O)nc-3n(C[C@H](O)[C@H](O)[C@H](O)COP(=O)(O)OP(=O)(O)OC[C@H]3O[C@@H](n4cnc5c(N)ncnc54)[C@H](O)[C@@H]3O)c2cc1C` [FAD, flavin adenine dinucleotide], the “X-ray crystal structure, 3.1 Å” value in data set [3] is listed as “The FAD cofactor is covalently attached to the protein through a linkage between N3”.

B1: human dimethylglycine dehydrogenase (hDMGDH) (Homo sapiens) (protein)
chain: T1 sequence (Q9UI17 29-866)
notes: covalent FAD at His91
As usually defined, the Km is the concentration of substrate that gives half-maximal velocity. For orientation: Vmax means the top rate of the reaction or transport when substrate is in excess. The term kcat denotes the number of substrate molecules converted per active site and unit of time at saturation. As usually defined, the kcat/Km is the turnover number divided by the Michaelis constant. Turning to B1, in data set [4], the Km worked out at 1.4 ± 0.1 mM, the Vmax is 22.1 µM/min, the kcat came out at 3.55 ± 0.0667 s⁻¹ and the kcat/Km came out at 2280 ± 267 M⁻¹ s⁻¹.

B2: human dimethylglycine dehydrogenase (hDMGDH) (Homo sapiens; H109R) (protein)
chain: T1 sequence (Q9UI17 29-866) with H81R
notes: covalent FAD at His91
With B2, in data set [4] (setting [5]), the Km is given as 32.2 ± 5.6 mM, the Vmax turned out to be 44.1 µM/min, the kcat is 9.07 ± 0.667 s⁻¹ and the kcat/Km was found to be 183 ± 16.7 M⁻¹ s⁻¹.
